Legend:
cell-expressed CD40 = cell-expressed CD40 (UniProt P25942); assay: cell binding on HEK-Blue-CD40L cells, Alexa-Fluor-488 anti-human IgG, high content imaging
recombinant CD40 protein = recombinant CD40 protein (UniProt P25942); assay: CD40L competition ELISA: antibody (5 µg/ml) preincubated with recombinant CD40 (1.7 µg/ml), complex added to coated CD40L, detected with anti-human F(ab)2-peroxidase; a high signal means no competition with CD40L (antibody and CD40L bound to CD40 together)
Sequence of recombinant CD40 protein (P25942 21-193 limits assumed): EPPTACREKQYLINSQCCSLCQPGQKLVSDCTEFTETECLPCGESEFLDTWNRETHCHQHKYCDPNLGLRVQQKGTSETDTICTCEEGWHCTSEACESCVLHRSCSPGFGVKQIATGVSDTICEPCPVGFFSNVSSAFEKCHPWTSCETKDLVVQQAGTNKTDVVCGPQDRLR

Sequence of cell-expressed CD40 (P25942 21-277 limits assumed): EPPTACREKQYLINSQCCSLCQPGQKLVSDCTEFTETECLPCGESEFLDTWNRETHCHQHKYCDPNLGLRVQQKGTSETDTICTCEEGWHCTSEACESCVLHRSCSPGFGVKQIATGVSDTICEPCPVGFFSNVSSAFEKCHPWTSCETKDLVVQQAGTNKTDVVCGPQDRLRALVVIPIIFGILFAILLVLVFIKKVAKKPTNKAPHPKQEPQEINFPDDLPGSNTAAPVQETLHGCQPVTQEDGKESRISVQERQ

Substance: CP-870,893 IgG1-LALA (antibody)
- EC50 (cell-expressed CD40): 0.0145 µg/mL
- OD at 450 nm (recombinant CD40 protein): 2.54 OD

Reference: patent US20240010741A1
